Earlier results in PMC3898597.

How the values were obtained:
Assay in all cases: SPR
Gβ1γ1 (Bos taurus) = Gβ1γ1 (Bos taurus) (UniProt P62871)
[1] = target: transducin heterotrimer (Gt) (Bos taurus) (UniProt P04695)
Gαt (Bos taurus) = Gαt (Bos taurus) (UniProt P04695)
Gαt (Bos taurus), sequence (P04695 2-350): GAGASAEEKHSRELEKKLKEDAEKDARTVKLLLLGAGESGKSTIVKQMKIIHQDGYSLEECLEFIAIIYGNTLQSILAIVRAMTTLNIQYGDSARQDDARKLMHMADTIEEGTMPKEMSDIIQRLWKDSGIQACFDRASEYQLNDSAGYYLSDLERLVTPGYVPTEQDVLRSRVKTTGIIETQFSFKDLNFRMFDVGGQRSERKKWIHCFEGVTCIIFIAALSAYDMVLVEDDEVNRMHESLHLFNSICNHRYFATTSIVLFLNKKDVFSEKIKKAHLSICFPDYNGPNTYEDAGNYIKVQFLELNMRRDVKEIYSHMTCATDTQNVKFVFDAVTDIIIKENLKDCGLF

rhodopsin, sequence (P02699 whole entry): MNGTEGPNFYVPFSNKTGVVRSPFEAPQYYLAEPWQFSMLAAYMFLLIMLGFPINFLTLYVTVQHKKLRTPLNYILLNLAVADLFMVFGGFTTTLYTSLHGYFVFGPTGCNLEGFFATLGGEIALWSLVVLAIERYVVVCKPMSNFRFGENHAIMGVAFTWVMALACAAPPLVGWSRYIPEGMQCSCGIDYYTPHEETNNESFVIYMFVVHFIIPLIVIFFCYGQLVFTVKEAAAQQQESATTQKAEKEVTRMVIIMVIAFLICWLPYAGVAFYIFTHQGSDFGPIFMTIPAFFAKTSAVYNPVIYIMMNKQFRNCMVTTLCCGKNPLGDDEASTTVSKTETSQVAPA
transducin heterotrimer (Gt) (Bos taurus), sequence (P04695 2-350, chain 1 of 3): as the sequence (P04695 2-350) above
transducin heterotrimer (Gt) (Bos taurus), sequence (P62873 2-340, chain 2 of 3, further chain): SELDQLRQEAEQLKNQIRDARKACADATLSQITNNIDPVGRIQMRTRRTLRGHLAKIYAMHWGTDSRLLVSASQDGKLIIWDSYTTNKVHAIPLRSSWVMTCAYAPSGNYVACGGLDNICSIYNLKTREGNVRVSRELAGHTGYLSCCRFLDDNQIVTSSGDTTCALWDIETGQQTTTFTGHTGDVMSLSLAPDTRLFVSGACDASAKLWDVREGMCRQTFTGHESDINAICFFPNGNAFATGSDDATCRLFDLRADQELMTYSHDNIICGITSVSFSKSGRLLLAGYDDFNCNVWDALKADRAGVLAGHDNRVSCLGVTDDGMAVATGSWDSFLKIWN
transducin heterotrimer (Gt) (Bos taurus), sequence (P02698 2-71, chain 3 of 3, further chain): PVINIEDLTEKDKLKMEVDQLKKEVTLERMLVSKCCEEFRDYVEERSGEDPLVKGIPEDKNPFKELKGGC
rhodopsin (recombinant), sequence (P02699 whole entry): as the sequence (P02699 whole entry) above

For rhodopsin (from UniProt P02699), the Kd (Gβ1γ1 (Bos taurus)) is listed as 300 nM, the Kd [1] is listed as 13.6 nM and the Kd (Gαt (Bos taurus)) is listed as 300 nM.

In the case of “rhodopsin (recombinant) (from UniProt P02699)”, the Kd [1] is listed as 9.1 nM.
